From US20060148057A1, “Thioredoxin mutants and uses thereof” (priority 2002, published 2006)

Tested on: caspase 3
Assay: ASK1-induced caspase 3 activity assay in BAEC (Ac-DEVD-AMC substrate)
Assay type: cell-based, Bovine
Conditions: co-expression with ASK1; n=4, p<0.05
Procedure: Caspase 3 activity assay: Caspase 3 activity was measured with a Caspase 3 fluorescence kit (Sigma) according to the Manufacturer's protocol. Briefly, BAEC were harvested in Caspase 3 lysis buffer (25 mM Hepes, pH 7.4, 5 mM CHAPS, 5 mM DTT) and incubated on ice for 15-20 min followed by a centrifugation at 14,000× g for 10-15 min at 4° C. For each reaction, 5 μl (200 μg) of cell lysate was incubated with 200 μl of 16 μM Caspase 3 peptide substrate acetyl-ASP-Glu-Val-Asp-7 amido-4-methylcoumarin (Ac-DEVD-AMC) in the assay buffer (25 mM Hepes, pH 7.4, 5 mM EDTA, 0.1% CHAPS, 5 mM DTT) in the presence or absence of 100 μM Caspase 3 inhibitor (Ac-DEVD-CHO). The reaction was incubated in the dark for 1-1.5 h and fluorescence was measured in a fluorescence plate reader. The measured fluorescence was used as an arbitrary unit.
Then the effects. of Trx on ASK1-induced caspase 3 activation, a hallmark of the execution of apoptotic cell death (Green D R. Apoptotic pathways: paper wraps stone blunts scissors. Cell. 102:1-4 (2000); Hengartner MO. The biochemistry of apoptosis. Nature. 407:770-6 2000)) was examined. Caspase 3 activity was determined by an in vitro assay using peptide substrate acetyl-ASP-Glu-Val-Asp-7 amido-4-methylcounarin (Ac-DEVD-AMC). Overexpression of ASK1 in BAEC increased caspase 3 activity compared to the control cells (FIG. 6B).

- inhibition of ASK1-induced caspase 3 activity: failed to block
B1: Trx-CS: double-mutant of C32S and C35S of Trx (protein)
chain: MVKQIESKTAFQEALDAAGDKLVVVDFSATWSGPSKMIKPFFHSLSEKYSNVIFLEVDVDDCQDVASECEVKCMPTFQFFKKGQKVGEFSGANKEKLEATINELV
modifications: left off: a dimerising Fc or GST; large carriers; small tags and cut ends
